± gives the standard deviation of the averaged measurements.
These sequences were tested on Saccharomyces cerevisiae (assay: protein stability index of tFT-peptide fusion (C-terminal peptide) (PSI (0-1 scale)); higher = more stable (slower turnover)). Settings: genetic background: wild type; temperature: 30 C.
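Further: PSI is a weighted mean of sequencing reads over stability bins, variants kept only with over 10 reads, mCherry proximal and sfGFP distal, peptide attached via GGGS linker.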

Sequence | protein stability index
SEWFETRNPMSI | 0.685 ± 0.096
SEYPCSDRAEVA | 0.65 ± 0.017
SFASGFFVVKDF | 0.658 ± 0.031
SFCHWHLFPPRS | 0.711 ± 0.041
SFFLSFFSPLVL | 0.63 ± 0.038
SFFSPFPSRICS | 0.829 ± 0.032
SFHIAARFRSLP | 0.719 ± 0.062
SFLFDSPYFVAI | 0.699 ± 0.018
SFLPRVVVRSTP | 0.667 ± 0.015
SFLSMDANDLLS | 0.7 ± 0.029
SFLVPRARPVLL | 0.688 ± 0.041
SFMVISSGSSVR | 0.725 ± 0.023
SFNLFFVVSPAL | 0.608 ± 0.097
SFPRPPSSPSPL | 0.714 ± 0.021
SFRASVSAPCLF | 0.683 ± 0.067
SFRFVLVQCSGV | 0.5601 ± 0.0046
SFSFPPHPLKSL | 0.723 ± 0.1
SFVECVDVMGRW | 0.757 ± 0.056
SFYSSPTVPFLP | 0.717 ± 0.044
SGAGGGVWWGGV | 0.73 ± 0.0092
SGAGRRMGGARE | 0.657 ± 0.051
SGAIDRSAYIDG | 0.622 ± 0.028
SGCGVRFLLCRL | 0.801 ± 0.065

Sequence | protein stability index
SGCIYLLQTPME | 0.636 ± 0.012
SGCSWRGSPVKE | 0.636 ± 0.0076
SGGGCVYRGGRG | 0.633 ± 0.015
SGHELLGSVFRR | 0.681 ± 0.076
SGIILEKGGGGN | 0.679 ± 0.026
SGLGRLRSGRVL | 0.698 ± 0.012
SGLRHLLPSGHN | 0.711 ± 0.041
SGLRLQLLVGHT | 0.632 ± 0.013
SGNALSGVIRNC | 0.783 ± 0.045
SGPGGWNREVGR | 0.6841 ± 0.0024
SGPHIAFYTSCP | 0.73 ± 0.053
SGRAGAPSVIRR | 0.694 ± 0.053
SGRDWYHSLGGA | 0.742 ± 0.052
SGRGLPLGGAFD | 0.727 ± 0.026
SGRSQHFVSFLR | 0.664 ± 0.018
SGRSSQNHRCWI | 0.684 ± 0.012
SGSGGGGMRLGS | 0.701 ± 0.026
SGSGLRIIRSSP | 0.657 ± 0.011
SGSIRHSSPLPT | 0.75 ± 0.12
SGTRIQFRLGMS | 0.723 ± 0.064
SGVAAGLVAGSL | 0.673 ± 0.12
SGVIRLRAVELF | 0.5726 ± 0.0017
SGVKKGRSEGKR | 0.629 ± 0.051

Sequence | protein stability index
SGVSICLSGMGK | 0.611 ± 0.017
SGWASVCARAAI | 0.745 ± 0.06
SGWRYPFGCGAS | 0.763 ± 0.1
SGYWWIYMSELS | 0.666 ± 0.019
SHILPCTCPLAA | 0.574 ± 0.044
SHLPPPSRFSSD | 0.677 ± 0.077
SHPPPTLLSYLP | 0.746 ± 0.0079
SHPRHSHLPFSP | 0.725 ± 0.079
SHRTHPAAPHAP | 0.738 ± 0.056
SHSRRSNMTLFV | 0.721 ± 0.073
SHTNVILQDVTI | 0.655 ± 0.087
SIDPAEFSSTLP | 0.7125 ± 0.0029
SIEEKRNKIDKI | 0.769 ± 0.2
SIENEYAMERKK | 0.707 ± 0.056
SIKDKFIVITLK | 0.629 ± 0.11
SIKKQLQKKKQK | 0.743 ± 0.1
SIKNTQRFKIRN | 0.663 ± 0.034
SIRGNGCVVCGT | 0.708 ± 0.093
SISPWFFFFLDW | 0.579 ± 0.014
SISSFLSLLFFR | 0.639 ± 0.062
SIVRRVRDRIGR | 0.641 ± 0.038
SIWLPPSRPPPS | 0.766 ± 0.015
SKGISARLAREG | 0.653 ± 0.038

Sequence | protein stability index
SKKHIKKKQKRK | 0.687 ± 0.053
SKKKKRRKEQEK | 0.745 ± 0.03
SKLTRHVDLHGS | 0.6898 ± 0.0017
SKLTSRPLSKVP | 0.718 ± 0.048
SKQGNKADGCAK | 0.603 ± 0.054
SKRQKKENLKET | 0.633 ± 0.044
SKRRLTGYRKTK | 0.669 ± 0.052
SKSDRNMQTIHY | 0.605 ± 0.067
SKYKITIYWREE | 0.568 ± 0.0096
SLAAPFPSLPNF | 0.652 ± 0.036
SLAASPPSPLLP | 0.63 ± 0.09
SLAFSVFWSIFL | 0.585 ± 0.015
SLALASTLRLPP | 0.69 ± 0.047
SLASHVLSRPTL | 0.7 ± 0.047
SLCRQHSVFSLA | 0.653 ± 0.044
SLDILVSVDGRL | 0.6546 ± 0.001
SLERWNPGGSGV | 0.656 ± 0.025
SLGLSRSRLPKN | 0.682 ± 0.043
SLHPSPPPLLPP | 0.642 ± 0.093
SLIPSRSLGFLH | 0.65 ± 0.05
SLLPPRLPPPPF | 0.633 ± 0.016
SLLPSHFASFSP | 0.744 ± 0.03
SLLRLFFLALSY | 0.542 ± 0.071

Sequence | protein stability index
SLLSFLLRSFFP | 0.722 ± 0.065
SLMCFDLSTFLG | 0.634 ± 0.08
SLMLPIFLPLSR | 0.698 ± 0.04
SLPAPRLGCIPC | 0.64 ± 0.044
SLPFCFIPVAPF | 0.756 ± 0.058
SLPGPRTELPLA | 0.644 ± 0.034
SLPLLSLPLLDF | 0.535 ± 0.02
SLPPHHLLISNA | 0.645 ± 0.028
SLPPPSSHPPPL | 0.7 ± 0.09
SLPQYPSGPTLT | 0.709 ± 0.029
SLQEIWRSKAKV | 0.676 ± 0.054
SLRESTPFCSRP | 0.553 ± 0.18
SLRLSRFLLTAP | 0.5536 ± 0.0031
SLRPPSTFRRSC | 0.71 ± 0.019
SLRPRPSLFPPP | 0.7196 ± 0.00099
SLSPLLVILANL | 0.613 ± 0.05
SLSTSFSSRPPS | 0.704 ± 0.089
SLTAPPNLASPW | 0.705 ± 0.089
SLTENRGRKKKK | 0.664 ± 0.0082
SLVLLNQHARER | 0.79 ± 0.036
SLVLRPTGILLI | 0.536 ± 0.019
SLWRLKESYRQS | 0.673 ± 0.039
SLWTDALFLCLT | 0.727 ± 0.19

Sequence | protein stability index
SMVGCVKTPIEQ | 0.659 ± 0.023
SMVGYPLPVSRN | 0.671 ± 0.039
SMVRYNDFPRPL | 0.689 ± 0.081
SNNWLEKTGAMT | 0.659 ± 0.03
SNPCLPPPSFAS | 0.77 ± 0.019
SNPFPTILSSSS | 0.736 ± 0.037
SNQKLLGQDIDN | 0.659 ± 0.024
SNRSAPWSRFSL | 0.68 ± 0.038
SNTKLIGLIVIG | 0.539 ± 0.043
SNTKPTCSNQQS | 0.688 ± 0.077
SPAQLSYLFPAP | 0.7928 ± 0.0039
SPARLRHSLSLP | 0.723 ± 0.014
SPASPPPPSPLL | 0.695 ± 0.028
SPCRAGRPAGLR | 0.729 ± 0.071
SPCSSDPLYSFA | 0.762 ± 0.069
SPEPSFPPLLLP | 0.715 ± 0.015
SPFPAWPIPASV | 0.612 ± 0.036
SPFPSPVLPPHT | 0.7153 ± 0.006
SPGPRLSTRLRQ | 0.701 ± 0.077
SPIRLPATSPSR | 0.639 ± 0.046
SPKDKARMQKQS | 0.602 ± 0.063
SPLFFPSSPPYP | 0.751 ± 0.023
SPLHLFHPPLLH | 0.729 ± 0.023

Sequence | protein stability index
SPLNLRIPGAPT | 0.675 ± 0.034
SPLPHRLFPFWS | 0.79 ± 0.015
SPLPLLRPPSSH | 0.593 ± 0.047
SPLPSSPRSVPP | 0.744 ± 0.094
SPLPYTPPLRAF | 0.5238 ± 0.0029
SPLSLPSPATFP | 0.688 ± 0.05
SPLSRSRPKSYL | 0.75 ± 0.072
SPLSSSDGSAAI | 0.73 ± 0.022
SPPALPPFLAPL | 0.72 ± 0.1
SPPCPPPHPHPP | 0.597 ± 0.012
SPPCRTYFAECD | 0.713 ± 0.053
SPPGPNQVARPP | 0.6873 ± 0.0057
SPPHPPPRPPLL | 0.733 ± 0.041
SPPLPPPSPTPP | 0.699 ± 0.016
SPPLSLPPPGQS | 0.671 ± 0.073
SPPLVFPTLLPL | 0.7101 ± 0.0029
SPPPHPPLRFLP | 0.667 ± 0.049
SPPPHSTPSSTG | 0.712 ± 0.054
SPPPIPPPPPSR | 0.726 ± 0.042
SPPPLPPPLSRP | 0.638 ± 0.067
SPPPLPPPTLPT | 0.791 ± 0.084
SPPPLPPTPPPL | 0.7135 ± 0.0055

— the supplement of paper PMC10724198
